# Laboratory results taken from patent US20040091487A1 (ALBERT EINSTEIN COLLEGE OF MEDICINE OF YESHIVA UNIVERSITY, published 2004).
# T1: GAL4AC-IN-2 (HIV-2, UniProt P04584 1172-1464)
# T1 construct: domain: integrase
# T1 sequence: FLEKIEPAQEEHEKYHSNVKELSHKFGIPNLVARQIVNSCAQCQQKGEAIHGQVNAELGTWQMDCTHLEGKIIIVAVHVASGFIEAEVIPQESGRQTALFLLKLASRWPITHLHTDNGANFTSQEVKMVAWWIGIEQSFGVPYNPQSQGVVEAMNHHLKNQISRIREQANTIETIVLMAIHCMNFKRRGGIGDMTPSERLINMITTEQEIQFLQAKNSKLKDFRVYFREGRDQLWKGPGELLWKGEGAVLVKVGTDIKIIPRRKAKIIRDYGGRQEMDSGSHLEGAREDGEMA
# B1: GAL4AC (other, UniProt P04386 768-881, looked up)
# chain: ANFNQSGNIADSSLSFTFTNSSNGPNLITTQTNSQALSQPIASSNVHDNFMNNEITASKIDDGNNSKPLSPGWTDQTAYNAFGITTGMFNTTTMDDVYNYLFDDEDTPPNPKKE
# notes: Negative control of the two-hybrid assay; also called GAL4AC alone
# What was measured:
# LexADB-IN-1 [1] = biological target: T2, LexADB-IN-1 (HIV-1, UniProt P0A7C2 1-87; P04585 1148-1435); test: reverse yeast two-hybrid, X-Gal staining
# T2 construct: Yeast two-hybrid fusion
# LexADB-IN-1 [2] = biological target: T2, LexADB-IN-1; test: yeast two-hybrid, β-Gal staining
# Text: (§1) To determine the specificity of interaction of INI1 with retroviral INs, we first examined the interaction of various INs with INI1/hSNF5 using the yeast two-hybrid system. […] The transformants were stained with X-GAL to detect positive interactions between the various retroviral INs and INI1/hSNF5.
# LexADB-INI1/hSNF5 = biological target: T3, LexADB-INI1/hSNF5 (human, UniProt P0A7C2 1-87 (Escherichia coli entry), limits assumed); test: yeast two-hybrid, β-Gal staining
# T3 construct: also called pSH2-INI1
# Text: as §1
# GAL4AC-IN-2 = biological target: T1, GAL4AC-IN-2; test: yeast two-hybrid, β-Gal staining
# Text: as §1
# GAL4AC = biological target: B1; test: yeast two-hybrid, β-Gal staining
# Text: as §1
# GAL4AC-IN-1 = biological target: T4, GAL4AC-IN-1 (HIV-1, UniProt P04585 1148-1435); test: yeast two-hybrid, β-Gal staining
# T4 construct: domain: integrase
# Text: as §1
binder,measurement,setting,value
"GAL4-AC fusion of S6 mutant E3 (other, also called pGADNot-E3) PEVLVPIRLDMEIDGQKLRDAFTWNMNEKLMTPEMFSEILCGDLDLNPLTFVPAIASAIRQQIESYPTDSILEDQSDQRVIIKLNIHVGNISLVDQFEWDMSEKENSPEKFA",binding result,LexADB-IN-1 [1],no binding
GAL4-AC fusion of S6 mutant E4 (other) PEVLVPIRLDMEIDGQKLRDAFTWNMNEKLMAPEMFSEILCDDLDLNPLTFVPAIASAIRQQIESYPTDSILEDQSDQRVIIKLNIHVGNISLVDQFEWDMSEKENSPEKFA,binding result,LexADB-IN-1 [1],no binding
GAL4-AC fusion of S6 mutant E10 (other) PEVLVPIRLDMEIDGQKLRDAFTWNMNEKLMTPEMFSEILCDDLGLNPLTFVPAIASAIRQQIESYPTDSILEDQSDQRVIIKLNIHVGNISLVDQFEWDMSEKENSPEKFA,binding result,LexADB-IN-1 [1],no binding
B1,binding result,LexADB-IN-1 [2],no binding
same,binding result,LexADB-INI1/hSNF5,no binding
"LexADB (other, UniProt P0A7C2 1-87, looked up, Negative control of the two-hybrid assay; also called LexADB alone) MKALTARQQEVFDLIRDHISQTGMPPTRAEIAQRLGFRSPNAAEEHLKALARKGVIEIVSGASRGIRLLQEEEEGLPLVGRVAAGEP",binding result,GAL4AC-IN-2,no binding
same,binding result,GAL4AC,no binding
same,binding result,GAL4AC-IN-1,no binding
